We go through 33 molecules from publication PMC10786891, “Massively parallel profiling of RNA-targeting CRISPR-Cas13d”.

The chains are these.
T1: EsCas13d, nuclease-dead (Eubacterium siraeum, UniProt B0MS50, R295A;H300A;R849A;H854A)
T1 sequence: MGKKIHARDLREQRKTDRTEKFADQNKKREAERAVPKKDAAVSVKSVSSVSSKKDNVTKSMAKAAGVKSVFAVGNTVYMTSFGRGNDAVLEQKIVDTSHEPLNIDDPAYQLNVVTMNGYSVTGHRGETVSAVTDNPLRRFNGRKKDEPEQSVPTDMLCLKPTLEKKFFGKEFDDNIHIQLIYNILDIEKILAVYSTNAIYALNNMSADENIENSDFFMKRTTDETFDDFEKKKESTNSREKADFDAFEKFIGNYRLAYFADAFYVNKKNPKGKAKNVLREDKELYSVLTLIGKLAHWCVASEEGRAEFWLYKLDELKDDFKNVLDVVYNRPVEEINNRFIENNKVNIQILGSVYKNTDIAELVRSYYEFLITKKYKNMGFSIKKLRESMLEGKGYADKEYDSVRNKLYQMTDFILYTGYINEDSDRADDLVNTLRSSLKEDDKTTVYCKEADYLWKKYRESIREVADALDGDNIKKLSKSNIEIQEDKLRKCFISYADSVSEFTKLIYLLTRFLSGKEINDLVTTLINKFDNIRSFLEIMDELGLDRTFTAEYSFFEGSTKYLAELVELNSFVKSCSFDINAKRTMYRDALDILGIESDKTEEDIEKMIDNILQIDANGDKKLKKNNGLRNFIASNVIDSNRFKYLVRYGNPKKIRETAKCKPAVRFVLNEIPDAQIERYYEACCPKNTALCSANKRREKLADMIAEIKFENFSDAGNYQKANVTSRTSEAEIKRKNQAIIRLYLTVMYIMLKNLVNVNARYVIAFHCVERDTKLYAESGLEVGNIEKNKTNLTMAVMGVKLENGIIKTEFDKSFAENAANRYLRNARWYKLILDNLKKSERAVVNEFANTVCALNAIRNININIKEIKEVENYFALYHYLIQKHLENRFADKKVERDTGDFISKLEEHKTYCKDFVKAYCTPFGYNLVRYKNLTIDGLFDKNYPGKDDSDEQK

B1: target 1 C2A,G13A (mixed)
RNA 1: CACCCGUGCAAAAAUGCAGGGGUCUAAAACUGAGCGGAUAACCUCUCUAUGG
RNA 2: GGGAAUGGAUCCACAUCUACGAAUUCGUACCAUAGAGAAGUUAUCCGCUAACCGAGAUCGGAAGAGCACACGU
B2: target 1 C2U,U10G (mixed)
RNA 1: B1 RNA 1
RNA 2: B1 RNA 2 with A39G, U42G, A50U
B3: target 1 insC 3' of 8,insA 3' of 2 (mixed)
RNA 1: B1 RNA 1
RNA 2: GGGAAUGGAUCCACAUCUACGAAUUCGUACCAUAGAGAGGUUAUCCCGCUCAACCGAGAUCGGAAGAGCACACGU
B4: target 1 insC 3' of 15,insU 3' of 1 (mixed)
RNA 1: B1 RNA 1
RNA 2: B3 RNA 2 with A38C, G39A, U41G, A43U, U44A, C45U, A53U
B5: target 1 insC 3' of 14,insG 3' of 9 (mixed)
RNA 1: B1 RNA 1
RNA 2: GGGAAUGGAUCCACAUCUACGAAUUCGUACCAUAGAGACGGUUAGUCCGCUCACCGAGAUCGGAAGAGCACACGU
B6: target 1 insC 3' of 9,insC 3' of 5 (mixed)
RNA 1: B1 RNA 1
RNA 2: B3 RNA 2 with U44C, C45U, U50C, C51U, A52C
B7: target 1 A9G,A14C (mixed)
RNA 1: B1 RNA 1
RNA 2: B1 RNA 2 with A38C, A39G, A43G, A50C
B8: target 1 C6U,G12U (mixed)
RNA 1: B1 RNA 1
RNA 2: B1 RNA 2 with A39G, G40U, C46U, A50C
B9: target 1 A1G,G17U (mixed)
RNA 1: B1 RNA 1
RNA 2: B1 RNA 2 with G35U, A39G, A50C, A51G
B10: target 1 U3G,G12U (mixed)
RNA 1: B1 RNA 1
RNA 2: B1 RNA 2 with A39G, G40U, U49G, A50C
B11: target 1 insC 3' of 15,insA 3' of 2 (mixed)
RNA 1: B1 RNA 1
RNA 2: B3 RNA 2 with A38C, G39A, U41G, A43U, U44A, C45U
B12: target 1 insC 3' of 8,insG 3' of 1 (mixed)
RNA 1: B1 RNA 1
RNA 2: B3 RNA 2 with A53G
B13: target 1 G17C,C21A (mixed)
RNA 1: B1 RNA 1
RNA 2: B1 RNA 2 with C31A, G35C, A39G, A50C
B14: target 1 insA 3' of 11,insC 3' of 9 (mixed)
RNA 1: B1 RNA 1
RNA 2: B5 RNA 2 with C39G, G41U, U42A, G45C
B15: target 1 insG 3' of 22,insG 3' of 7 (mixed)
RNA 1: B1 RNA 1
RNA 2: GGGAAUGGAUCCACAUCUACGAAUUCGUACGCAUAGAGAGGUUAUCGCGCUCACCGAGAUCGGAAGAGCACACGU
B16: target 1 insC 3' of 9,insG 3' of 2 (mixed)
RNA 1: B1 RNA 1
RNA 2: B3 RNA 2 with U44C, C45U, A52G
B17: target 1 C7U,G13U (mixed)
RNA 1: B1 RNA 1
RNA 2: B1 RNA 2 with A39U, C45U, A50C
B18: target 1 U10A,C21U (mixed)
RNA 1: B1 RNA 1
RNA 2: B1 RNA 2 with C31U, A39G, U42A, A50C
B19: target 1 insC 3' of 20,insC 3' of 10 (mixed)
RNA 1: B1 RNA 1
RNA 2: B15 RNA 2 with G31C, C32A, A33C, A44C, U45A, C46U, G47C
B20: target 1 U8G,C22A (mixed)
RNA 1: B1 RNA 1
RNA 2: B1 RNA 2 with C30A, A39G, U44G, A50C
B21: target 1 insC 3' of 8,insU 3' of 1 (mixed)
RNA 1: B1 RNA 1
RNA 2: B3 RNA 2 with A53U
B22: target 1 C2A,G15C (mixed)
RNA 1: B1 RNA 1
RNA 2: B1 RNA 2 with G37C, A39G
B23: target 1 C7U,A18U (mixed)
RNA 1: B1 RNA 1
RNA 2: B1 RNA 2 with A34U, A39G, C45U, A50C
B24: target 1 del19,del22 (mixed)
RNA 1: B1 RNA 1
RNA 2: GGGAAUGGAUCCACAUCUACGAAUUCGUACAAGAGAGGUUAUCCGCUCACCGAGAUCGGAAGAGCACACGU
B25: target 1 insA 3' of 6,insG 3' of 6 (mixed)
RNA 1: B1 RNA 1
RNA 2: B3 RNA 2 with C47A, C49G, U50C, C51U, A52C
B26: target 1 G5A,C21U (mixed)
RNA 1: B1 RNA 1
RNA 2: B1 RNA 2 with C31U, A39G, G47A, A50C
B27: target 1 A14C,C21U (mixed)
RNA 1: B1 RNA 1
RNA 2: B1 RNA 2 with C31U, A38C, A39G, A50C
B28: target 1 insC 3' of 8,insC 3' of 1 (mixed)
RNA 1: B1 RNA 1
RNA 2: B3 RNA 2 with A53C
B29: target 1 insC 3' of 22,insU 3' of 20 (mixed)
RNA 1: B1 RNA 1
RNA 2: B5 RNA 2 with A32C, U33A, A34U, G35U, C39G, G40A, U42G, A44U, G45A
B30: target 1 insC 3' of 15,insC 3' of 1 (mixed)
RNA 1: B1 RNA 1
RNA 2: B3 RNA 2 with A38C, G39A, U41G, A43U, U44A, C45U, A53C
B31: target 1 C6A,U11C (mixed)
RNA 1: B1 RNA 1
RNA 2: B1 RNA 2 with A39G, U41C, C46A, A50C
B32: target 1 del19,del20 (mixed)
RNA 1: B1 RNA 1
RNA 2: B24 RNA 2 with A31C
B33: target 1 insC 3' of 15,insG 3' of 3 (mixed)
RNA 1: B1 RNA 1
RNA 2: B5 RNA 2 with A38C, C39A, G45U, U46C, C48G, G49C, C50U, U51G

Where a chain is given by its changes, count along the chain named. Names and notes keep the numbering of the source.

One may read the Kd as the equilibrium constant for the complex coming apart. A lower Kd goes with tighter binding.

This data set addresses T1, EsCas13d, nuclease-dead. In words: crRNA (strand 1, pre-loaded); Mg2+; 40 mM Tris-HCl pH 7.5, 150 mM NaCl, 6 mM MgCl2, 1 mM DTT, 0.1% Tween-20, 0.2 mg/ml BSA; 25 C; 10 min per concentration, then washed. Conditions: tags: His6-TwinStrep-SUMO cleaved; N-terminal SNAP kept (SNAP-Surface 488); label: 3' end held by stalled T7 RNA polymerase.
The molecule B1 showed a Kd of 5.06 ± 0.27 nM.

The molecule B2 returned a Kd of 23.6 ± 1.7 nM. Under B3 stands 18.9 ± 1.4 nM.

With B4, the Kd amounted to 19.1 ± 1.8 nM. In turn, B5 came in with a Kd of 38 ± 9 nM. Under B6 stands 10.9 ± 0.7 nM; under B7, 46 ± 6 nM. The value for B8 was 11.3 ± 0.8 nM; that for B9 was 21.3 ± 2.1 nM; that for B10 was 8.5 ± 0.4 nM. The value for B11 was 15.6 ± 0.8 nM.

Regarding B12, binding was characterised by a dissociation constant (Kd) of 14.3 ± 1 nM. Under B13 stands 47 ± 12 nM; under B14, 15.3 ± 0.8 nM; under B15, 18.1 ± 1.1 nM. Under B16 stands 13.8 ± 0.7 nM. Consider B17, for which binding was put at a Kd of 39 ± 6 nM. Under B18 stands 8.1 ± 0.5 nM. The value for B19 was 8.7 ± 0.6 nM; that for B20 was 27.6 ± 3 nM; that for B21 was 26.3 ± 2.5 nM. Under B22 stands 40 ± 4 nM; under B23, 26.9 ± 2.3 nM. For the molecule B24, the Kd was 56 ± 16 nM. The value for B25 was 32 ± 5 nM. The value for B26 was 23 ± 6 nM; that for B27 was 7.3 ± 0.6 nM; that for B28 was 13 ± 0.9 nM. Under B29 stands 18.3 ± 2.7 nM; under B30, 15.6 ± 1.3 nM; under B31, 8.6 ± 0.7 nM.

For the molecule B32, the Kd worked out at 32.4 ± 3.4 nM. This Kd lies about 3.8-fold higher than the previous one.

In turn, B33 registered a Kd of 9.32 ± 0.33 nM.
